Paper PMC5573372, “Solvent Assisted Tuning of Morphology of a Peptide-Perylenediimide Conjugate: Helical Fibers to Nano-Rings and their Differential Semiconductivity” (Scientific Reports, 2017)

Assay: Solubility of P-1 in water and THF
Type: physicochemical
Settings: method not described

O=C(O)[C@H](Cc1ccccc1)NC(=O)[C@H](Cc1ccccc1)N1C(=O)c2ccc3c4ccc5c6c(ccc(c7ccc(c2c37)C1=O)c64)C(=O)N([C@@H](Cc1ccccc1)C(=O)N[C@@H](Cc1ccccc1)C(=O)O)C5=O [P-1]
solubility in THF (THF (good solvent)): ~ 0.1 mM
solubility (water (poor solvent)): < 0.1 µM
